According to US20260139048A1 (NANJING LEGEND BIOTECH, published 2026):
Residue numbers refer to the chain shown, from its start. Where two headings read alike, the source gives them in different places.

T1: His-tagged human TIGIT (human, UniProt Q495A1 22-141)
T1 construct: SPR analyte; also called human TIGIT protein; not shown: His tag
T1 sequence: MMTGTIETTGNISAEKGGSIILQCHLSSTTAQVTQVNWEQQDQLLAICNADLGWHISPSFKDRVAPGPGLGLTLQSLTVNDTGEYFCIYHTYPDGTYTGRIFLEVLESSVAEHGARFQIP

T2: human TIGIT expressed on CHO-K1 cells (human, UniProt Q495A1 22-244)
T2 construct: whole, on cells; also called human TIGIT-CHO-K1 cells; human TIGIT over-expressing cell line
T2 sequence (looked up): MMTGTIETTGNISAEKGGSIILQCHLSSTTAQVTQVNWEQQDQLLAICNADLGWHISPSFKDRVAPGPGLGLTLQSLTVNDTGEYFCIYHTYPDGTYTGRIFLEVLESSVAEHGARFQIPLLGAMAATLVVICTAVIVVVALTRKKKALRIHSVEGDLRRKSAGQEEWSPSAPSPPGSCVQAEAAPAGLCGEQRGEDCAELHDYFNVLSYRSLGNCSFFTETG

T3: TIGIT on TIGIT-over expressing NFAT-Luc/Jurkat effector cells (GenScript reporter cell line) (UniProt Q495A1 22-244, limits assumed)
T3 sequence (looked up): T2 sequence (looked up)

B1: TIGIT-15 chimeric antibody (antibody, human IgG1, kappa, V domains shown)
VH: DVQLVESGGGLVQPGGSLKLSCAASGFTFSSYGMSWVRQTPDRRLELVATINNNGGSTYYPDSVKGRFTISRDNARNTLYLQMSSLKSEDTAMYYCATRTGTEILGFDFWGQGTTLTVSS
VL: DIVLTQSHKFMSTSLGDRVSITCKASQDVSTAVAWYQQKPGQSPKLLIYWASSRHTGVPDRFTGSRSGPDYTLTISSVQAEDLALYYCQQQYSTPWTFGGGTKLEIKR
notes: Full-length chimeric IgG1 kappa
B2: TIGIT-63 chimeric antibody (antibody, human IgG1, kappa, V domains shown)
VH: DVQLVESGGGLVQPGGSLSLSCAASGFTFTDYYMNWVRQPPGKALEWLGFIRNKANGYTTEYSASVKGRFTISRDNSQSILYLQMNALRAEDSATYYCARSTAWYFDVWGTGTTLTVSS
VL: DIQMTQSPASLSASVGGTVTITCRASEHIYSYLAWYQQKQGKSPQLLVYNAKTLAEGVPSRFSGSGSGTQFSLKINSLQPKDFGSYYCQHHYGNPLTFGAGTKLELKR
notes: as for B1
B3: TIGIT-87 chimeric antibody (antibody, human IgG1, kappa, V domains shown)
VH: EVKLVESGPELVKPGASMKISCKASGYSFTGYTMNWVKQSHGKNLEWIGLINPYNGGTSYNQKFKGKATLTVDKSSSTAYMELLSLTSEDSAVYYCARYANRFENWFAYWGQGTLVTVSS
VL: B2 VL with G17E, H28N, K81E, N94T, L96W, A100G, L106I
notes: as for B1
B4: TIGIT-6 chimeric antibody (antibody, human IgG1, kappa, V domains shown)
VH: QVQLKQSGPELVKPGASVKISCKTSGYTITENTMHWVKQSHGKSLEWIGGINPNNGGTSYNQQFKGKATLTVDKSSSTAYMELRSLTSEDSAVYYCTRSSYYRYDLDYWGQGTTVTVSS
VL: DIQMTQSHKFMSTSVGDRVSITCKASQDVKTALAWYQQKPGQSPKLLIYSASYRYTGVPDRFTGSGSGTDFTFTISSVQAEDLAVYYCHQHYTTPWTFGGGTKLEIKR
notes: also called 6VH + 6VL
B5: reshaped TIGIT-3 antibody 3VH3 + 3VL1.M1 (antibody, V domains shown)
VH: EVQLVESGGGLVQPGGSLRLSCAASGFTFSSYGMSWVRQAPGKGLELVATIKSDGGSTNLPDSVKGRFTISRDNSKNTLYLQMNSLRAEDTAVYYCVRGYFDYWGQGTTVTVSS
VL: DIQMTQSPSSLSASVGDRVTITCRASQDIKTALAWYQQKPGKVPKLLIYWSSTRHTGVPSRFSGSGSGTDFTLTISSLQPEDVATYYCQQYYSTPYTFGGGTKVEIK
notes: Full-length IgG, tested as HEK293 supernatant
B6: reshaped TIGIT-3 antibody 3VH3 + 3VL1.M4 (antibody, V domains shown)
VH: B5 VH
VL: B5 VL with R24K, I29V, L33V, S51A, H55Q, T56S
notes: as for B5
B7: TIGIT-52 chimeric antibody (antibody, human IgG1, kappa, V domains shown)
VH: EVQLVESGGGLVEPGGSLTLSCVASGFTFSSFAMSWVRQTPEKRLEWVATISNGGSYTYYPDTVKGRFTISRDNAKNTLFLQMSSLRSEDTAMYYCARPYYGTTYGYYFDFWGQGTTLTVSS
VL: QIVLTQSPASLAVSLGQRATISCRASESVDRNGNSFMHWYQQKPGQPPKLLIYLASNLESGVPARFSGSGSRTDFTLTIDPVEADDAATYYCQQNNEDPLTFGAGTKLELKR
notes: as for B1
B8: 4.1D3 (anti-TIGIT positive control antibody) (antibody, V domains shown)
VH: QVQLQQSGPGLVKPSQTLSLTCAISGDSVSSNSAAWNWIRQSPSRGLEWLGKTYYRFKWYSDYAVSVKGRITINPDTSKNQFSLQLNSVTPEDTAVFYCTRESTTYDLLAGPFDYWGQGTLVTVSS
VL: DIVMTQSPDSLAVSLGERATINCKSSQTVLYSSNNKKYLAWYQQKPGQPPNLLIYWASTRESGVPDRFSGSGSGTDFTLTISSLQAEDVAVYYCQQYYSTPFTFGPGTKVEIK
B9: TIGIT-18 chimeric antibody (antibody, human IgG1, kappa, V domains shown)
VH: QVQLQQPGAELVRPGASVKLSCKASGYSFTSYWMNWVKQRPGQGHEWIGMIHLSNSETRLNQNFLDKATLTVDKSSSTVYLQLSSPTSEDSAVYYCARERDYYGSSYFDYWGQGTTLTVSS
VL: DIVMTQSPASLVVSLGQRATISCRTSQSVSTSSYSYMHWYQQKPGQPPKLLIKNASNLESGVPARFSASGSGTDFTLNIHPVEEEDAATYYCQHSWEIPRTFGGGTKLEIKR
notes: as for B1
B10: TIGIT-94 chimeric antibody (antibody, human IgG1, kappa, V domains shown)
VH: EVKLVESGGGLVKPGGSLKLSCAASGFTFSTYTMSWVRQTPEKRLEWVATISSGGTYTHYPDSVKGRFTISRDNAKNTLYLQMSSLKSEDTAMYYCTRWFLSLYAMDYWGQGTSVTVSS
VL: DIVMTQSTSSLSASLGDRVTISCRASQDINNFLNWYQQKPAGTVDLLIYYTSRLHSGVPSRFSGSGSGTDYSLTISNLDQEDIATYFCQQGNTFPYTFGGGTRLEIKR
notes: as for B1

Experiments:
[1] = target: T4, His-tagged cynomolgus TIGIT (cynomolgus, UniProt A0A7N9I9V4 89-209); assay: SPR (Biacore T200), antibody captured, His-tagged TIGIT analyte
T4 construct: SPR analyte; also called cynomolgus TIGIT protein; not shown: His tag

[2] = target: T1, His-tagged human TIGIT; assay: as above
[3] = target: T5, cynomolgus TIGIT expressed on CHO-K1 cells (cynomolgus, UniProt A0A7N9I9V4 89-312); assay: flow cytometry on CHO-K1 cells expressing cynomolgus TIGIT
T5 construct: whole, on cells; also called cynomolgus TIGIT over-expressing cell line

[4] = target: T2, human TIGIT expressed on CHO-K1 cells; assay: flow cytometry on CHO-K1 cells expressing human TIGIT
[5] = target: T2, human TIGIT expressed on CHO-K1 cells; assay: flow cytometry competition: biotinylated CD155-Fc on human TIGIT-CHO-K1 cells
[6] = target: T3, TIGIT on TIGIT-over expressing …; assay: cell-based or functional assay
[7] = target: T2, human TIGIT expressed on CHO-K1 cells; assay: flow cytometry on CHO-K1 cells expressing human TIGIT; remark: listed apart in the source
[8] = target: T5, cynomolgus TIGIT expressed on CHO-K1 …; assay: flow cytometry on CHO-K1 cells expressing cynomolgus TIGIT; remark: listed apart in the source
[9] = target: T3, TIGIT on TIGIT-over expressing …; assay: cell-based or functional assay; remark: listed apart in the source
[10] = target: T2, human TIGIT expressed on CHO-K1 cells; assay: flow cytometry competition: biotinylated CD155-Fc on human TIGIT-CHO-K1 cells; remark: listed apart in the source
[11] = target: T1, His-tagged human TIGIT; assay: SPR experiment 2, IgG from HEK293 supernatant captured
[12] = target: T1, His-tagged human TIGIT; assay: SPR experiment 1, IgG from HEK293 supernatant captured
[13] = target: T4, His-tagged cynomolgus TIGIT; assay: SPR (Biacore T200), antibody captured, His-tagged TIGIT analyte; remark: listed apart in the source
[14] = target: T1, His-tagged human TIGIT; assay: as above; remark: listed apart in the source
[15] = target: T1, His-tagged human TIGIT; assay: SPR experiment 3, IgG from HEK293 supernatant captured

T4 sequence (A0A7N9I9V4 entry or part of it): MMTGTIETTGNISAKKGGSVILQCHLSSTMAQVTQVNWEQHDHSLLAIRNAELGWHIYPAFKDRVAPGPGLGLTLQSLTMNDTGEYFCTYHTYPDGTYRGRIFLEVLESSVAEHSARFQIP
T5 sequence (A0A7N9I9V4 entry or part of it): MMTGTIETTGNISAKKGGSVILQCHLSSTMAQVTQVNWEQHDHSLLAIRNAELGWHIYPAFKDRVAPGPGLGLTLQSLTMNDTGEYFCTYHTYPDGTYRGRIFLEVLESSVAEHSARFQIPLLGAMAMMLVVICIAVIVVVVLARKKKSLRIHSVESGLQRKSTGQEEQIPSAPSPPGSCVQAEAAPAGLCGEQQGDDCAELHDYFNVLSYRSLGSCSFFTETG

| Binder | Kd [1] | koff [1] | kon [1] | Kd [2] | koff [2] | kon [2] | EC50 [3] | EC50 [4] | IC50 [5] | Bottom (RLU) [6] | EC50 [6] | Top (RLU) [6] | other results |
| --- | --- | --- | --- | --- | --- | --- | --- | --- | --- | --- | --- | --- | --- |
| B1 | 1.1 nM | 0.0002 s⁻¹ | 180000 M⁻¹ s⁻¹ | 0.19 nM | 0.00016 s⁻¹ | 860000 M⁻¹ s⁻¹ | 3.53 nM | 1.03 nM | 1.07 nM | 7720 RLU | 17.4 nM | 51900 RLU |  |
| B2 | 3.4 nM | 0.00049 s⁻¹ | 140000 M⁻¹ s⁻¹ | 2.5 nM | 0.00062 s⁻¹ | 250000 M⁻¹ s⁻¹ | 1.92 nM | 1.12 nM | 2.32 nM | 11200 RLU | 46.8 nM | 28700 RLU |  |
| B3 | 47 nM | 0.063 s⁻¹ | 1.3e+06 M⁻¹ s⁻¹ | 0.63 nM | 0.0012 s⁻¹ | 2e+06 M⁻¹ s⁻¹ | 0.81 nM | 0.4 nM | 0.53 nM | 9300 RLU | > 100 nM | 17000 RLU |  |
| B4 | 54 nM | 0.0049 s⁻¹ | 90000 M⁻¹ s⁻¹ | 0.24 nM | 0.00013 s⁻¹ | 560000 M⁻¹ s⁻¹ | 2.64 nM | 0.42 nM | 0.57 nM | 10900 RLU | 9.42 nM | 49800 RLU | EC50 [7]: 0.581 nM; EC50 [8]: 2.31 nM; Bottom (RLU) [9]: 51400 RLU; EC50 [9]: 4.9 nM; Top (RLU) [9]: 139000 RLU; IC50 [10]: 0.566 nM; Kd [11]: 0.29 nM; koff [11]: 0.00012 s⁻¹; kon [11]: 420000 M⁻¹ s⁻¹; Kd [12]: 0.094 nM; koff [12]: 5.3e-05 s⁻¹; kon [12]: 560000 M⁻¹ s⁻¹; Kd [13]: 39 nM; koff [13]: 0.0046 s⁻¹; kon [13]: 120000 M⁻¹ s⁻¹; Kd [14]: 0.17 nM; koff [14]: 9e-05 s⁻¹; kon [14]: 520000 M⁻¹ s⁻¹ |
| B5 |  |  |  |  |  |  |  |  |  |  |  |  | Kd [15]: 17 nM; koff [15]: 0.0038 s⁻¹; kon [15]: 230000 M⁻¹ s⁻¹ |
| B6 |  |  |  |  |  |  |  |  |  |  |  |  | Kd [15]: 55 nM; koff [15]: 0.012 s⁻¹; kon [15]: 230000 M⁻¹ s⁻¹ |
| B7 | 0.28 nM | 6.1e-05 s⁻¹ | 220000 M⁻¹ s⁻¹ | 0.17 nM | 7.4e-05 s⁻¹ | 440000 M⁻¹ s⁻¹ | 7.68 nM | 8.43 nM | 13.9 nM | 11800 RLU | > 100 nM | 14200 RLU |  |
| B8 | 5.4 nM | 0.0011 s⁻¹ | 200000 M⁻¹ s⁻¹ | 0.065 nM | 4.3e-05 s⁻¹ | 660000 M⁻¹ s⁻¹ | 2.77 nM | 0.95 nM | 1.4 nM | 12600 RLU | 9.28 nM | 44200 RLU | EC50 [7]: 1.05 nM; EC50 [8]: 2.35 nM; Bottom (RLU) [9]: 55300 RLU; EC50 [9]: 9.69 nM; Top (RLU) [9]: 142000 RLU; IC50 [10]: 0.95 nM; Kd [13]: 3 nM; koff [13]: 0.00083 s⁻¹; kon [13]: 270000 M⁻¹ s⁻¹; Kd [14]: 0.055 nM; koff [14]: 3.5e-05 s⁻¹; kon [14]: 630000 M⁻¹ s⁻¹ |
| B9 | 4.4 nM | 0.0011 s⁻¹ | 260000 M⁻¹ s⁻¹ | 0.22 nM | 9.5e-05 s⁻¹ | 430000 M⁻¹ s⁻¹ | 1.45 nM | 0.76 nM | 1.23 nM | 10400 RLU | 31.3 nM | 50600 RLU |  |
| B10 | 7.7 nM | 0.0075 s⁻¹ | 980000 M⁻¹ s⁻¹ | 1.6 nM | 0.0019 s⁻¹ | 1.2e+06 M⁻¹ s⁻¹ | 0.74 nM | 0.51 nM | 0.72 nM | 9960 RLU | 92.8 nM | 59800 RLU |  |
